18 sequences from the DeepSol protein solubility set can be followed below.

This data set is described as follows: soluble on expression in E. coli; label from the status in PepcDB or PDB records.
“MGSDKIHHHHHHMTTLPYFQPAASPASAGEGSASLSPVIALKDLVARLDREQRKAQELLASLGFALRSFTNLGQFLELIPLIASRVTDTEGSLLLTFRPDGRFWQAQLHCTDPRLAETLNRIPASLPVGTAPSGSPTEAIAEIDRQVQRCLGRNAQLFATAVLVRNQARGRLYVFSLDGQYSWNESRQKLVRLVADQTAVAIENDALTTELRQKERLDRELEIGAEIQLQLLPSQCPAIEGLEIAAACRTASRVGGDYYDFIPTRTHSDEQGRLQPDAGSPWAIAIGDIMGKGVPAGLIMTMLRGMLRAEVLNRHRPSRVLAHLNQVIYADLEHSNRFATLFYSEYDPSSRLLTFSNAAHNPPLLWQQATGTLKRLDTFGMMIGLEADNAYAEQHVQLQPGDVVLYYTDGLTDAADPRGNRFDEENVAIAFREACRRRLSAEALLADLFNRVQRFIGPDRHNEDDMTLVVLRAV”: the “soluble on expression in E. coli” value is recorded as “not soluble”.
As for “MGSDKIHHHHHHMTTSKRVAIIGAGPSGLAQLRAFQSAAAKGEEIPEIVCFEKQDNWGGLWNYTWRTGLDENGEPVHCSMYRYLWSNGPKEGLEFADYSFEEHFGKQIASYPPRAVLFDYIEGRVLKANVRDWIRFSTAVRWIDYNDETGLFKVTVHDHTNDRVYSEEFDHVICASGHFSTPNVPHYEGFETFNGRLVHAHDFRDAREFAGKDILVVGSSYSAEDIGSQCWKYGAKSITSCYRSAPMGFKWPDNWEEKPALVKVDKNTVFFSDGTSREVDAIILCTGYKHFFNFLPDDLRLKTANRLATADLYKGVVYVHNPKMFYLGMQDQWFTFNMFDAQAWWVRDAIMGKIDLSNVTKEQMLADVTERETREEASDDVKYAIRYQADYVKELVAETDYPSFDIDGACEAFFQWKKHKGEDIMAFRNNSYTSVITGTLAPVHHTPWKDALDDSMEAYLRN”, the “soluble on expression in E. coli” value is recorded as “not soluble”.
The same measure for “MGSDKIHHHHHHMTVDTRPAVGNPGYATSSPELERWLARHISEGFGAESLVLSMLRSGYDAAFARSAVATAMGHRRPDASATQPAPRLARREVPVLFSLQSPSIRLYQHLLSDAECDALVELARGRLARSPVINPDTGDENLIDARTSMGAMFQVGEHTLIQRIEDRIAAVLGVPVDHGEGLQILNYKPGGEYQPHFDFFNPKRPGEARQLRVGGQRTATLVIYLNTPQAGGATAFPRIGLEVAPVKGNAVYFSYLQPDGKLDERTLHAGLPVQSGEKWIATKWLREHPYRAGA”: “not soluble”.
As to “MGSDKIHHHHHHMTVSKTKAKLVDVARQLFAKMGVENTTMNDIALASKKGRRTLYTYFKSKDEIYLAVVESELDILSDMMKRVADKDISPDKKIIEMIYTRLDAVKEVVYRNGTLRANFFRDIWRVEKVRKRFDAKEMQLFKSVLKEGQDKGVFHVDDVEMTAALVHYCVKGIEVPYIRGHIGANLDMETRKRYVANIVFGALHRTEINQ”, the “soluble on expression in E. coli” value was “not soluble”.
Take “MGSDKIHHHHHHMTVTILHEANSIDTDYVKRARLISDKFLELIILPTEQCNFRCTYCYEDFSIGRMQPETIAGIKAILDKRCPNLSYLNLAWFGGEPLVAKNIVLDISEYALSLVSKYPHLHYSSNMTTNGYLLDLNTASALANVGVTKYQISLDGPREIHNQSRIRADGKSTFERIWTNLLAIRDSSLPIYINLRLHFTIDTVKLIDPLLEDIKREFLPDSRFSVYFKSIERLGGTNDASIKIYSESEKNTAIKTLEAKLFGEKLQSPQNATLPDDYVCYASRPNSLVIRANGSVGKCTVALSDERNNIGTLRTDGRLDLIPGRFAPWVRGIQTLDPDVLGCPLVSLPTSDEIATNLQTKALAV”: the “soluble on expression in E. coli” value was “not soluble”.
On to “MGSDKIHHHHHHMTVVEPNSDQKLDTAVATVLHEISSFQSFAVERDLEDVIERISKVFRISDIDAFRYYINKSISGLGKIYPLFNLEEVKEIDVNGYDEPVIVKLSDDNYYTTNIKLLANEVDSIAIRLAQLMGKKISTSDPLARGTLNNREVSITFGTEISPKGSSIRIARNDSGYDLKKFVESNGFSLESISYLKIAIENSKSIVIIGPHTELKYSALLFLMDLVDKEKKITYIGEKIPSRSPGNYIFMKTKEKSIFSSQIDRVSLINTAMRQRPDYIVIDTIEVVDLPSVIQAITTGHPTFTSIDIDSVSALVSAFSDSALDLGRDMVSVIDIVIEISESSDRISSIYEFDRFEHNDVLYDLVFSIDKTTEKLRYNGFSPMFRSMSNAMGKDDFHRYLENVRKITSELIENGLS”, for which the “soluble on expression in E. coli” value is “not soluble”.
Regarding “MGSDKIHHHHHHMTWQVERIANEHLTLEVLPQIGASVLNLRAASGRPVLRPVNPAAVQTSSQCASFTLLPYSNRIRDARFSFQGREVLLRPTTKDGLAQHGDVRNRPWQVTRVADTHLRGDFDSRAFNDMNWPWAFTARVEYLLHGPHLDTSVTLTNVDTDEMPAGMGLHPYFTRRHGGRDPFLSFGAALTYDTDERQLPTGGPRTLHPEEDYQMPSSIGDRQLDRVYTAWDGRARLDWGERALTLTADAVYSHLVVFTAPDGSLALEPVTHATDAFNLAARGVSGTDMRTLLPGQSLAGTVRITLEGAW”, the “soluble on expression in E. coli” value is “not soluble”.
On to “MGSDKIHHHHHHMTYARKPVADAGIGVGIADDPASLSVLHKPGCAAAIWRRHIPSQAKTWLEGLDPSQLPTGRQMVRPDGVRHAVRDFCKRADTPLGDDLDWLQNDMSMLAEMFAQVMSARVLRLRLDAISTNACSRFHIDAVTARLVCTYRGSGTQYGISTDGRAPRRVFQVATGAPILLRGTLWPEDPPSGVLHRSPPIAGTGETRLVMVLDPIFDPDNGP”, for which the “soluble on expression in E. coli” value is “not soluble”.
In the case of “MGSDKIHHHHHHMVAIKNFSIKIKDKEPVFTLGEKLTQEQLDFFETHGYIHFKNFLNPETVPAVIKALEDVQEQWIAENREKVNGVPIKYGVDLDGKKIVQRFAFASLFSNVLHELLKDPRLKALYPLLQAKDERIGEFEKDGLVVNHYINSDASSFTKMGWHTDCLRDVFYGKKIMPMLNVGIHLDNYDPKNGGLRIIPGTHKQDLLNLLFRKKYYVSHKPDPDEIGFNITAGDLTVHDGRSWHRVERSPITGEASRRRVMYIPFIGGEYQPKDENSSTQLYQRLSKFVR”, the “soluble on expression in E. coli” value is on record as “not soluble”.
Consider “MGSDKIHHHHHHMVDSLKKPGFEEIRPGVKVPAKETLLTPRFYTTDFDEMARMDISVNEDELLAILEEFRTDYNRHHFVRDAEFEKSWDHIDGDTRRLFVEFLERSCTAEFSGFLLYKELGRRLKDKSPVLAECFNLMSRDEARHAGFLNKAMSDFNLSLDLGFLTKSRNYTFFKPKFIFYATYLSEKIGYWRYITIYRHLEAHPEDRIYPIFRFFENWCQDENRHGDFFDAIMKSQPQMLNDWKAKLWSRFFLLSVFATMYLNDIQRKDFYASIGLDARDYDIYVIKKTNETAGRVFPVILDVDSPEFYERLDICVENSEKLSAIASSNTPKFLQFFQKLPVLASTGWQLLRLYLMKPIDAVSAQGAAR”, for which the “soluble on expression in E. coli” value is listed as “not soluble”.
With “MGSDKIHHHHHHMVKVSIICTNYNKGSWIGEAIDSFLKQETSFPYEIIIVDDASTDHSVHIIKTYQKQYPDLIRAFFNQENQGITKTWSDICKKARGQYIARCDGDDYWIDPFKLQKQIDLLETSPESKWSNTDFDMVDSKGNIIHKDVLKNNIIPFMDSYEKMLALKGMTMASTWLVETKLMLEINDRINKDAVDDTFNIQLELFKKTKLAFLRDSTTVYRMDAESDSRSKDSEKLAQRFDRLLETQLEYIEKYPDSDYKKVLEYLLPKHNDFEKVLAQDGKNVWDNQQITIYLAKGDDQEFSEENCFQFPLQHSGNIQLTFPENIRKIRIDLSEIPSYYRQVSLVNTTVNTELLPTWTNAKVFGYSYYFIAPDPQMIYDLTAQEGQDFKLTYEWFNVDRPSQPDFLANHLVKELDQKKVELKMLSPYKYQYQKAVAERDLYLEQLNEMVVRYNSVTHSRRWTIPTKIINLFRRKK”, the “soluble on expression in E. coli” value is given as “not soluble”.
“MGSDKIHHHHHHMVLGGPMSLNRYFTGGLLCLLGCNPANAQTATIVLSATLLPACEAGSVGSGGAITFGTLDFGQYASLNNAISATSQQGAGSIRVRCVSGQTYAITLDGGLYGSVATRRMANIANTALTLTYNLYSDRPGGIVWDNTTGVAATGNGNDQWYPIYGLVPAQTTPVAGTYRDTVNVTISW”: the “soluble on expression in E. coli” value was “not soluble”.
For “MGSDKIHHHHHHMVNKNLYTLLVCLLLAGCDLIDYHPYDVRISGETDVNAHNIEQIEAKCKGKTTIRFITMGDSQRWYDETEDFVKEVNKRDDIDFVIHGGDMSDFGLTKEFLWQRDIMNGLKVPYVVLIGNHDCLGTGAETYQAVFGPTNFSFIAGNVKFVCLNTNALEYDYSEPIPNFGFMEQELTDRADEFEKTVVSMHAHPFADVFNDNVAKPFQYYITQYPGLQFCTAAHNHGFDDRILFDDDVHYIVSDCMKSRSYLVFTITPEKYEYELVEY”, the “soluble on expression in E. coli” value is reported as “not soluble”.
With “MGSDKIHHHHHHMVPARHCHVAVFDQAIVALDIRRSRYFLYDAACARDFADHYLDFKPIDAPRALKPLIADRILVAESPAAARSRIADYRGWSFDAFDSGIWGSRVLGKRDAARFEWLPFWRIVRSAASLKMRGFHALAALDQLDARGAPARGDDASHTVERLLRASIWSPFRITCVQMSLALATHLRRQNVPAQLVIGVRPMPFVAHAWVEVDGRVCGDEPDLKKSYGEIYRTPRCDASAAPFGLAA”, the “soluble on expression in E. coli” value is given as “not soluble”.
The same measure for “MGSDKIHHHHHHMVPHLITALNGPLLELEKKILDATPSIERWFRLEWQEHTPPFYCSVDLRNAGFKLAPVDTNLFPGGFNNLAPEMLPLAVQAAMAAIEKICPDAKNLLLIPERHTRNMFYLQNVARLSLIMRQAGLNVRLGSLSEEITEPTPIELPDGQTLVVEPLARLGTKDRRLGLKDFDPCSILLNNDLSAGIPPILENINEQYLLPPLHAGWSTRRKSSHFAAYDEVAKKFAKLIDIDQWMVNPYFARCSGVNFHERIGEEELADSVEAVLKKIAKKYREYGIKETPYVVVKADAGTYGMGIMTVRDPSEVKGLNRKERNKMSVVKEGLEVSDVIIQEGVHTFEKVNEAVAEPVVYMIDRYVVGGFYRVHTGRGNDENLNAPGMHFVPLAFAPNGIPDSHAKPGAAVPNRFYMYGVVARLALLAASIELEKTDPNPIL”: “not soluble”.
The same measure for “MGSDKIHHHHHHMVQEIAQEIIRSARKKGTQDIYFVPKLDAYELHMRVGDERCKIGSYDFEKFAAVISHFKFVAGMNVGEKRRSQLGSCDYAYDHKIASLRLSTVGDYRGHESLVIRLLHDEEQDLHFWFQDIEELGKQYRQRGLYLFAGPVGSGKTTLMHELSKSLFKGQQVMSIEDPVEIKQDDMLQLQLNEAIGLTYENLIKLSLRHRPDLLIIGEIRDSETARAVVRASLTGATVFSTIHAKSIRGVYERLLELGVSEEELAVVLQGVCYQRLIGGGGIVDFASRDYQEHQAAKWNEQIDQLLKDGHITSLQAETEKISYS”: “not soluble”; for “MGSDKIHHHHHHMVSMTKLVELKNSEASAVVLPRHGAGLASFDFLWRGSRLPAFRPLITEPQHEHDLALYLLAPFSNRIGGGGFAWNGRRHDLRPNVEGEPCPLHGDAWQQHWTVMDQGRTHVTLQLLSRSIPPFAYDAEITWTLDGPSLSGALTLIHRGEDPMPYGGGFHPWLVRDSDTQLHARADGWWSEDSLHLPKRWHALVDNDSSGFGAPRSLPSNFFNTVYTGWHGRADIWWPGRGLALQIEAQAPLNRYIVYSPGAEADFFCFEPVSHDVNAHNAPSPLKHGLVELAEGESLHLSARFTATLR”: “not soluble”; for “MGSDKIHHHHHHMVSTIGIVSLSSGIIGEDFVKHEVDLGIQRLKDLGLNPIFLPHSLKGLDFIKDHPEARAEDLIHAFSDDSIDMILCAIGGDDTYRLLPYLFENDQLQKVIKQKIFLGFSDTTMNHLMLHKLGIKTFYGQSFLADICELDKEMLAYSLHYFKELIETGRISEIRPSDVWYEERTDFSPTALGTPRVSHTNTGFDLLQGSAQFEGKILGGCLESLYDIFDNSRYADSTELCQKYKLFPDLSDWEGKILLLETSEEKPKPEDFKKMLLTLKDTGIFAVINGLLVGKPMDETFHDDYKEALLDIIDSNIPIVYNLNVGHATPRAIVPFGVHAHVDAQEQVILFDYNK”: “not soluble”.
